PMC11500415, “Chemical inhibition of stomatal differentiation by perturbation of the master-regulatory bHLH heterodimer via an ACT-Like domain” (Nature Communications, 2024)

T1: recombinant SCRM (1-494) (A. thaliana, UniProt Q9LSE2 1-494)
T1 construct: Used in ITC and BLI; In BLI one partner was loaded GST-tagged on anti-GST probes; also called SCREAM; ICE1; source: E. coli BL21, purified (glutathione resin, thrombin, Superdex-200); not shown: GST, N-terminal, cleaved
T1 sequence (looked up): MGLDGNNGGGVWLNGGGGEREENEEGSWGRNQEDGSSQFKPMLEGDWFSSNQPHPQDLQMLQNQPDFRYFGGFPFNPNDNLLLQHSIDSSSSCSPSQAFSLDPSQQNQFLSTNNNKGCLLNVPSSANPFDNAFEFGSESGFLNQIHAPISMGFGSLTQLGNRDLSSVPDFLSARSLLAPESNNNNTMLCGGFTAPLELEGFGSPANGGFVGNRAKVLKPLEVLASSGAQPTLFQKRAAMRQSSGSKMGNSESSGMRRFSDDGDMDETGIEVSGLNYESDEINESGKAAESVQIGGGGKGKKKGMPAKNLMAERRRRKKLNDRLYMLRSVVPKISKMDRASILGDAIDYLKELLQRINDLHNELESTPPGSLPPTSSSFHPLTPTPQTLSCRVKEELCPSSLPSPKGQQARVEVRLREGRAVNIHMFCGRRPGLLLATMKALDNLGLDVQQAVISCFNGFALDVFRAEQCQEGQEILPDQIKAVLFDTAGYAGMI


Tests used:
Details in all cases: both partners purified
[1] = biological target: T1, recombinant SCRM (1-494); assay: BLI; Octet Red96, anti-GST probes loaded with 500 nM GST tagged protein, 30 °C, 1× PBS, 2% DMSO, 0.02% Tween20; MUTE pre-incubated with Stomidazolone
[2] = biological target: T1, recombinant SCRM (1-494); assay: BLI; Octet Red96, anti-GST probes loaded with 500 nM GST tagged protein, 30 °C, 1× PBS, 2% DMSO, 0.02% Tween20; 1:1 model, steady-state analysis; without Stomidazolone
[3] = biological target: T1, recombinant SCRM (1-494); assay: ITC; Malvern PEAQ-ITC, 30 °C, PBS pH 7.4, 2% DMSO, 1 mM DTT; MUTE pre-incubated with Stomidazolone
[4] = biological target: T1, recombinant SCRM (1-494); assay: ITC; Malvern PEAQ-ITC, 30 °C, PBS pH 7.4, 2% DMSO, 1 mM DTT; without Stomidazolone

Binder	Kd [1] [nM]	Kd [2] [nM]	Kd [3] [nM]	Kd [4] [nM]
recombinant MUTE (1-202), as used in BLI (natural protein, A. thaliana, UniProt Q9M8K6 1-202, looked up, also called full-length MUTE; source: E. coli BL21, purified (glutathione resin)) MSHIAVERNRRRQMNEHLKSLRSLTPCFYIKRGDQASIIGGVIEFIKELQQLVQVLESKKRRKTLNRPSFPYDHQTIEPSSLGAATTRVPFSRIENVMTTSTFKEVGACCNSPHANVEAKISGSNVVLRVVSRRIVGQLVKIISVLEKLSFQVLHLNISSMEETVLYFFVVKIGLECHLSLEELTLEVQKSFVSDEVIVSTN	856 ± 15.1	7.5 ± 1.2		
recombinant MUTE (1-202), as used in ITC (natural protein, A. thaliana, UniProt Q9M8K6 1-202, looked up, also called full-length MUTE; source: E. coli BL21, purified (glutathione resin, thrombin, Superdex-200); not shown: GST, N-terminal, cleaved) MSHIAVERNRRRQMNEHLKSLRSLTPCFYIKRGDQASIIGGVIEFIKELQQLVQVLESKKRRKTLNRPSFPYDHQTIEPSSLGAATTRVPFSRIENVMTTSTFKEVGACCNSPHANVEAKISGSNVVLRVVSRRIVGQLVKIISVLEKLSFQVLHLNISSMEETVLYFFVVKIGLECHLSLEELTLEVQKSFVSDEVIVSTN			900 ± 34.5	9.5 ± 1.6
